PMC5916938
Values joined by “and” are separate entries in the source; they are usually repeats but may differ in a detail not shown here. Identical values can stand only once.

Molecular target: porcine brain tubulin (alpha/beta heterodimer), as paclitaxel-stabilised microtubule lattice (straight tubulin) or as curved tubulin protofilaments (porcine) (UniProt P02550)
Test: cryo-EM 2D class averages; CTNM AMP-PNP: 15 uM KLP10A NM with 3 uM polymerized tubulin in BRB80, 5 mM AMPPNP, 5 mM MgCl2, 20 uM paclitaxel, 5 min at room temperature; ring-like curved tubulin complexes not wrapped around microtubules, aligned and classified in 2D
Details: scale: KLP10A motor domain per tubulin heterodimer

Sequence of UniProt P02550 (P02550 whole entry, chain 1 of 2): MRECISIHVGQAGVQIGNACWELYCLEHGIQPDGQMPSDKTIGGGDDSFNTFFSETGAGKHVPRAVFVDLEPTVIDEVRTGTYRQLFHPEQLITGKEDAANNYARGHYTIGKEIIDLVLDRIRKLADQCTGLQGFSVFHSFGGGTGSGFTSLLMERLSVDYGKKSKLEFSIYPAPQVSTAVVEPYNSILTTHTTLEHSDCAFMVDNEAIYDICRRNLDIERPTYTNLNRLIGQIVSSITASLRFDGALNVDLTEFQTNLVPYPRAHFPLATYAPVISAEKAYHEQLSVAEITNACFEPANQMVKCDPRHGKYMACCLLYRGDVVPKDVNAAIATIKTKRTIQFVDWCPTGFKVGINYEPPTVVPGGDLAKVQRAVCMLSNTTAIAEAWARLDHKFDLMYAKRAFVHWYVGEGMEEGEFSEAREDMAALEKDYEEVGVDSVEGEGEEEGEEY
Sequence of UniProt P02550 (P02554 1-439, chain 2 of 2, further chain): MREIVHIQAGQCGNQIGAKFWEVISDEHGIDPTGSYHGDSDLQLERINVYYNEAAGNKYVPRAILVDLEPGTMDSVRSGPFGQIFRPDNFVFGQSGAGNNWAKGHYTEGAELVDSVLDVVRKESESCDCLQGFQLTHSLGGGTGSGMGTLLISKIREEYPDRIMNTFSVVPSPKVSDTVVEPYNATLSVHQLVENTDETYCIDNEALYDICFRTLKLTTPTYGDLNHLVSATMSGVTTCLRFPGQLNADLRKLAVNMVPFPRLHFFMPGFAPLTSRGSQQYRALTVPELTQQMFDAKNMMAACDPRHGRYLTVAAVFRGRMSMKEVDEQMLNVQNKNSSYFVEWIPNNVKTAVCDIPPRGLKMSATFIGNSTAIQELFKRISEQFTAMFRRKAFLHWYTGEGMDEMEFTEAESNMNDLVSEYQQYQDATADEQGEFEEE

Substance: Drosophila melanogaster kinesin-13 KLP10A neck motor construct (NM), residues 198-615 (from UniProt Q960Z0 198-615) (domain or fragment)
- stoichiometry N: 1 and 0.5
